Assay results taken from the nanobody polyreactivity screen of Harvey et al. (2022).

Assay: yeast display, Sf9 membrane polyspecificity reagent, FACS + sequencing; frameworks hold sequencing errors
In short: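 Nanobodies from a synthetic yeast display library (Saccharomyces cerevisiae BJ5465), induced 36–48 hours with galactose, were stained 1 hour at 4 °C with 10% biotinylated, detergent-solubilized Sf9 membrane reagent, enriched on streptavidin microbeads, then FACS-sorted. Anti-HA (expression) and streptavidin (reagent binding) fluorescence set low and high (top ~1%) gates. Polyreactivity labels come from the gate of origin. Genes were colony-PCR amplified, MiSeq 2 × 250 sequenced and filtered by CDR length.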

Row | Sequence | polyreactivity (PSR sort gate)
1 | QVQLVESGGGLVQAGGSLRLSCAASGRTFASNALGWYRQAPGKERELVADISSSGGTTYYADSVKGRFTISRDNAKNTVYLQMNSLKPEDTAVYYCAAVSSQDDPVKAWDYDYWGQGTQVTVSS | low polyreactivity
2 | QGQLVESGGGLVQAGGSLRLSCAASGRTFGYYAMRWYRQARGKERELVAVITRSGGTTYYADSVKGRFTISRDNAKNTVYLQMKSLKPEDTAVYYCHPAYYTGMYWGQGTQVTVSS | high polyreactivity
3 | QVQLVESGGGLVQAGGSLRLSCAASGSIFNYYTMGWYRQAPGKRELVAAITWSGDSTYYADSVKGRFTISRDNAKNTVYLQMNSLKPEDTAVYYCAAAQARRYYWGQGTQVTVSS | high polyreactivity
4 | QVQLVESAGGLVQAGGSLRLSCAASGRIFVTNAMGLYRQAPGKEREFVAGISFSGDGRTYYADSVKGRFTISRDYAKNSVYFQMNSLKPEDTAVYYCAAPHRSRTHELDYWGLGTQVTVSS | low polyreactivity
5 | QVQLVESGAGLVQAAGSLRLSCAASVSTFYTYAMGRYRQAPGKERELVADIRWRGGSTNYADSVKGRFTISRDNAKNTVYLQMNSLTSEDTAVYYCALRYYYYGASYYYWGHGTQVTVSS | high polyreactivity
6 | QVQLEESGGGLVQAGGSLRLSCAASGSTFFLYAMGWYRQAPGKERELVAAITYTDGDTYYADSVKGRFTISRDNAKNTVYLQMNSLKPEDTAVYYCNAGGDEPVYGSGYDYWGQGTQVTVSS | low polyreactivity
7 | QVQLVESVGGLVQAGGSLRLSCAASGNTFSYNAMGWYRQAPGKERELVAAIRWSGGSTYYADSVKGRFTISRDNAKNTVYLQMNSLKPEDTAVYYCNARYASTNYGWFSYYWGQGTQVTVSS | high polyreactivity
8 | QVQLVESGGGLVQAGGSLRLSCAASGTIFFFYVMGWYRQAPGKERELVAAITYSGGSTFYADSVKGRFTISRDNAKNTVYLQMNSLKPEDTAVYYCAAVYGQWTPLDPYNHWGQGTQVTVSS | low polyreactivity
9 | QVQLVESGGGLVQAGGSLRLSCAASGFIFSYYAMGWYRQAPGKERELVADISRGGSTYYADSVKGRFTISRDNAKNTVYLQMNSLKPEDTAVYYCNAYIRYVVNGYRVYSFDYWGQGTQVTVSS | high polyreactivity
10 | QVQLVESGGCLVQAGGSLRLSCAASGFIFAYYAMGWYRQARGKERELVAAISYSGSTKYSDSVKGRFTISRDNSKNTVNLQMNSLKPEDTAVYYCAADRVWGTPQAYVPSQFDYWGQGTQVTVSS | low polyreactivity
11 | QVQLVESGGGLVQAGGSLRLSCAASGFIFPAYAMGWYRQAPGKERELVAGITSRGGSTYYADSVKGRFTISRDNAKNTVYLQMNSLKPEDTAVYYCAKPYHWPWTRFDYWGQGTQVTVSS | low polyreactivity
12 | QVQLVESGGGLVQAGGSLRLSCAASGLTFHPYDMGWYRQAPGKERELVAAISSRGTSTYYADSVKGRFTISRDNAKNTVYLQMNSLKPEDTAVYYCAARHGPRAEAMYYWGQGSQVTVSS | high polyreactivity
13 | QVQLVESGGGLVQAGGSLRLSCAASGSIFRVYAMGWYRQAPGKERELVATISGSAGRTYYADSVKGRFTISRDNAKNTVYLQMNSLKPEDTAVYYCAARWYKEYYWGQGTQVTVSS | high polyreactivity
14 | QVQLVESGGGLVQAGGRLRLSCAASGFISKYYAMGWSRQAQGKERELVASISRDGSTSYADSVKGRFTISRDNAKNTVYIQMNSLKPEDTAVYYCAAPSYRTRYYYWGQGTQVTVSS | high polyreactivity
15 | QVQLVESGGGLVQAGGSLRLSCAASGSIFDPYAKGWYRQAPGKEREFVAAITGSGGSTSYADSVKGRFTISRDNAKNTVYLQMNSLKPEDTAVYYCAARRTVEWGQGTQVTVSS | high polyreactivity
16 | QVQLVESGGGLVQAGGSLRLSCAASGSTFWSYAMGWYRQAPGKERELVAAISYRGTRTRYADSVKGRFTISRDNAKNTVYLQMNSLKPEDTAVYYCAADRTFYGIRFDYWGQGTQVTVSS | high polyreactivity
17 | QVQLVESGGGLVQAGGSLRLSCAASGSIFGYYAMGWYRQAPGKERELVAAITRSGGSTYYADSVKGRFTISRDNAKNTVYLQMNSLKPEDTAVYYCNAVRYAVRLPAFPGYDYWGQGTQVTVSS | high polyreactivity
18 | QVQLVESGGGLVQAGGSLRLSCAASGYTIVSYAMGWERQAPGKERELVASIRWRGGRTYYADSVKGRFTISRDNAKNTVYLQMNSLKPEDTAVYYCAASTYYSPYVAHYGYWGQGTQVTVSS | high polyreactivity
19 | QVQIVESGAGLVQAGGSLSLSCAASGSIFHDNAMGWYRQAPGKERELVAAINRGGSRHYADSVKGRFTISRDNAKNTVYFQMNSLKPEDTAVYYCAADGIRPEVGYWGQGTQVTVSS | low polyreactivity
20 | QFQLVESGGGLVQAGGSLRLSCAASGSIFLAYDMGWYRQAPGKERELVAGITSGGTTYYADSVKGRFTISRDNAKNTVYLQMNSLKPADTAVYYCAALLYTPYYYWGQGTQVTVSS | low polyreactivity
21 | QVQLVESGGGLVQAGGSLRLSCAASGRIFLGYAMGWYRQAPGQERELVASITSSGGSTYYADSVKGRFTISRDNAKNTVYLLMNSLKPEDTAVYYCAKVGHYRWGWLSRAASDYWGQGTQVTVSS | high polyreactivity
22 | QVQLVESGGGLVQAGGSLRLSCAASGSIFYYYSMGWYRQAPGKERELVAAMSTGGGSTYYADSVKGRFTISRDNAKNTVYLQMNSLKPEDTSVYYCAAPWGYYSSFTDDYWGQGTQVTVSS | low polyreactivity

Row | Sequence | polyreactivity (PSR sort gate)
23 | QVQLVESGGGLVQAGGSLRLSCAASGRTFHWYAMGWYRQAPGKERELVAAIRYSAGSTYYADSVKGRFTISRDNAKNTVYLQMNSLKPEDTAVYYCAAEPYPYGPYYFLWLRYDYWGQGTQVTVSS | low polyreactivity
24 | QVQLVESGGGLVQAGGSLRLSCAASGSIFDYNAMGWYRQAPGKERELVAAISVSGGSTYYADSVKGRFTISRDNAKNTVYLQMNSLKPEDTAVYYCAAETWTYGWSYDYWGQGTQVTVSS | high polyreactivity
25 | QVQLVESGGGLVQAGGSLRLSCAASGLTFNHYAMGWYRQAPGKERELVAAISSGSSTDYADSVKGRFTISRDNAKTTVYLQMHSLKPEDTAVYYCAVETPSTWFWGWGYDYDYWGQGTQVTVSS | high polyreactivity
26 | QVQLVESGGGLVQAGGSLRLSCAGSGSTFHPYAMGWYRQAPGKVRELVAAITWGGGSTYYADSVKGRITISRDNAKNTVYLQMNSLKPEDTAVYYCNAYTLYWPDYDYWGQGTQVTVSS | low polyreactivity
27 | QVQLVESVGGLVQAGGSLRLSSSASGSNCVLNAIGWYRQAPGKEWELVAAITKVGSTYYADSVKGRFTISRDNAKNTVYLQMNSLIPEDTAVYYCNADPGEVLVGYDYWGQGTQVTVSS | low polyreactivity
28 | QVQLVESGGGLVQAGGSLSLSCAASGSTFYENAMGWYRQAPGKERELVAAITWSGGRTYYADSVKGRFTISRDNAKNTVYLQMNSLKPEDTAVYYCNARARSRKFYYWGQGTQVTVSS | high polyreactivity
29 | QVQLVESGGGLVQAGGSLRLSCAASGRNFVAYTMGWYRQAPGKERELVAAISTNGGRTYYADSVKGRFTISRDNAKITVYLQMNSLKPEDTAVYYCAAYRGPRADYYWGQGTQVTVSS | high polyreactivity
30 | QDQLVESGGGLVQAGGSLRISIAASARTFRDYVMGWSRQAPGKERELVAAISTRGASTYYADSVKGRFTISRDNAKNTVYLQMNTLKPEDTADYYCAARSTRRGNEYDYWGQGTQVTVSS | high polyreactivity
31 | QVRLVESGGGLGQAGGSLRLSCAASGPIFDTNAMGWYRQAPGKERELVAAISYIGGGTYYADSVKGRFTISRDNAKNTVYLQMNSLKPEDTAVYYCAAEQIYVFFGDWMEYWGQGTQVTVSS | low polyreactivity
32 | QVQLDESGGGLVQAGGSLRLSCAASGRTFGVYAMGWYRQAPGKERELVAAIRWSGGGTYYADSVKVRFTISRDNAKNTVYLQMNSLKPEDTAVYYCAATLENSPYTRYTDMYYWGQGTQVTVSS | low polyreactivity
33 | QVQLVETGGGLVKAGGSLRLSCAASGITFSVYTMGWDRQAPGKERELVASITRSVGSTYYADSVKGRFTISRDNAKNTVYLQMNSLKPEDTAVYYCAARRTVVTGRYYWGQGTQVTVSS | high polyreactivity
34 | QVQLQESGGGLVQAGGSMRLSCAPRGSIYELRPMGWNRQAPGKESELVAGISTGGSTNYADCVIGRFTISRDNAKYSVYLQMNSLKPEDSAVYYCAAASYGEGTYDYWGQGTQVTVRS | high polyreactivity
35 | QVQLVESGGGLVQAGGSHRLSCAAYGSTFFPNCMGWYRQAPGKERELVAAITSGGSTYADSVKGRFTISRDNAKNTVYLQMNSLKQEDTAFYYCAADSRQGFLLYGYWGQATQVTVSS | low polyreactivity
36 | QVQLVESGGGLVQAGGSLRLSCAASGYYAMGWYRQAPGKERELVPAITWSGGTTYYADSVKGRFTISRDNAKNTVYLQMNSLKPEDTAVYYCNADFVRYTRHKKYYYWGQGTQVTVSS | low polyreactivity
37 | QVQLVESGGGLVQAGGSLRLSCAASGRTFWGYAMGWYRQAPGKERELVAAISWSGTSTYYADSVKGRFTISRDNAKNTVYLQMNRLKPEDSAVYYCARAVNDWSRKYNYWGQGTLVTVSS | high polyreactivity
38 | QVQLVESGGGLVQAGGSLRLRCAASGSTFGKNAMGWYRQAPGKERELVAAISKNGGSTYYADSVKGRFTISRDNAKNTVYILMNSLKPEDTAVYYCNTRRKNFVKSSQVEYWGQGTQVTVSS | high polyreactivity
39 | QVQLVESGGGLVQAGGSLRLSCAASGSIFHQYVMGWYRQAPGKERELVAAISIRGTRTYYADSVKGRFTISRDNAKNTVYLQMNSLKPEDTAVYYCAVSGGRLQGDYWGQGTQVTVSS | high polyreactivity
40 | QVQLVESGGGLVQAGGSLRLSCAASGSTFGYYTMGWYRQAPGKERELVAAITGGGTTYYADSVKGRFTISRDNAKNTVYLQMNSLKPEDYAVYYCAAQARYYWGTTYEYWGQGTQVTVSS | high polyreactivity
41 | HAQLQESGGCLVQAGGSLRPSCAASGSIFRVSGMGWYRRAPGKERELVASIGFGSITYYADRVKGRFTISRDNAINTVYLQMNSLKPEDTAVYYCAVQVQDESWLDYWGQGTQVTVSC | low polyreactivity
42 | QVQLVESGGGLVQAGGSLRLSCAASGRTFYYYAMGWYRQAPGKERELVAGITATGSSTYYADSVKGRFTISRDNAKNTVYLQMNSLKPEDTAVYYCAADRYTTYSGQWSYPYDYWGQGTQVTVSS | low polyreactivity
43 | QVQLVESGGGLVQAGGSLRLSCAPSGITFTHYVMGWYRQAAGKERELVAAITSGGRTNYADSVKGRFTISRDNAKNTVYLQMNSLIPEDTAVYYCNAVKRVGDYWGRSFDYDYWGQGTKVTVSS | high polyreactivity
